According to paper PMC2723119, “A new cold-adapted β-D-galactosidase from the Antarctic Arthrobacter sp. 32c – gene cloning, overexpression, purification and properties” (BMC Microbiology, 2009):

Substrate: O=[N+]([O-])c1ccccc1O[C@@H]1O[C@H](CO)[C@H](O)[C@H](O)[C@H]1O
Test: purified protein
Type: biochemical, Arthrobacter sp.
Conditions: 50 °C (optimum; also at 10, 20, 30, 40, 55 °C), pH 6.5, 0.02 M potassium phosphate

B1: Arthrobacter sp. 32c β-D-galactosidase (Arthrobacter sp.) (protein)
chain: MGKRFPSGWFSPRVHPPRRQRSPMTNQATPGTASVWNNIEGIGFGGDYNPEQWPVSVRLEDLELMQEAGVNFLSVGIFSWALLEPAEGQYDFGWLDDVMDNLHGIGVKVALATATAAPPAWLVRKHPEILPVTADGTTLGPGSRRHYTPSSAVYRKYAAGITRVLAERYKDHPALALWHVDNELGCHVSEFYGEEDAAAFRLWLERRYGTIDALNAAWGTAFWSQHYGSFEEILPPGVAPSTLNPGQQLDFQRFNSWALMDYYRSLVAVLREVTPAVPCTTNLMASSATKSMDYFSWAKDLDVIANDHYLVAADPERHIELAFSADLTRGIAGGDPWILMEHSTSAVNWQPRNQPKMPGEMLRNSLAHVARGADAVMFFQWRQSFAGSEKFHSAMVPHGGRDTRVWREVVDLGAALQLLAPVRGSRVESRAAIVFDYEAWWASEIDSKPSIDVRYLDLLRAFHRSLFLRGVSVDMVHPSASLDGYDLVLVCTLYSVTDEAAANIAAAAAGGATVLVSYFSGITDEKDHVRLGGYPGAFRELLGVRVEEFHPLLAGSQLKLSDGTVSSIWSEHVHLDGAEAFQTFTGYPLEGVPSLTRRAVGTGAAWYLATFPDRDGIESLVDRLLAESGVSPVAEADAGVELTRRRSADGGSFLFAINHTRAAASVRASGTDVLSGERFTGTVEAGSVAVIAED
notes: full length, recombinant, no tag apparent (own stop codon in reverse primer); starts MGKRFPS (from primer)
  Km: 2.62 ± 0.21 mM
  kcat: 212.4 ± 1.67 s⁻¹
  kcat/Km: 81100 ± 7760 M⁻¹ s⁻¹
